The values that follow come from publication PMC7993378, “Inhibition of bacterial and human zinc-metalloproteases by bisphosphonate- and catechol-containing compounds” (Journal of Enzyme Inhibition and Medicinal Chemistry, 2021).

Data set [1] concerns COc1ccc2c(CC(=O)N[C@@H](CCCNC(=N)N)C(=O)N3CCC[C@H]3C(=O)N3CCC[C@H]3C(=O)NCC(=O)N[C@@H](Cc3ccccc3)C(=O)N[C@@H](CO)C(=O)N[C@@H](C)C(=O)N[C@@H](Cc3ccccc3)C(=O)N[C@@H](CCCCNc3ccc([N+](=O)[O-])cc3[N+](=O)[O-])C(=O)O)cc(=O)oc2c1. As to the kind of experiment: purified protein, by the assay type. The note with it: other: 1% DMSO; regarded as uncertain, highest substrate concentration 10 µM; pH 7.5.
Description: Km values were determined for McaPLGL(Dpa)AR-NH2 with APMA-activated recombinant MMP-9 (rMMP-9(A)), trypsin-activated MMP-9 from THP-1 cells (MMP-9(T)) and MMP-14, and for Mca[sequence](Dnp)-OH with ALN, PLN and TLN. Substrate concentrations used were 1–10 µM in a total volume of 100 µL of 0.1 M Hepes pH 7.5 containing 10 mM CaCl2, 0.005% Brij-35 and 1.0% DMSO. […] Initial rate experiments were performed as described above for the determination of enzyme activity of MMP-9 during activation and the same excitation and emission wavelengths were used for both substrates.

Data set [2] shares this test system. Briefly: Km determination of McaRPPGFSAFK(Dnp)-OH with TLN. It counts as biochemical, Bacillus thermoproteolyticus. As to conditions: other: 2% DMSO; pH 7.5. On the procedure: The estimated Km values for ALN and PLN must be regarded as uncertain since the highest substrate concentration used was 10 µM due to quenching. The obtained Km values are very similar to those previously obtained for theses enzymes without DMSO[57] or with a DMSO concentration of 5%[58]. Previously it was reported that TLN is inactivated in most organic cosolvents, but can tolerate up to 10% DMSO to enhance substrate solubility. For TLN, the Km value was also determined with a DMSO concentration of 2%.
Km values were determined for McaPLGL(Dpa)AR-NH2 with APMA-activated recombinant MMP-9 (rMMP-9(A)), trypsin-activated MMP-9 from THP-1 cells (MMP-9(T)) and MMP-14, and for McaRPPGFSAFK(Dnp)-OH with ALN, PLN and TLN. Substrate concentrations used were 1–10 µM in a total volume of 100 µL of 0.1 M Hepes pH 7.5 containing 10 mM CaCl2, 0.005% Brij-35 and 1.0% DMSO. […] Initial rate experiments were performed as described above for the determination of enzyme activity of MMP-9 during activation and the same excitation and emission wavelengths were used for both substrates.

The term Km denotes the substrate concentration at which the rate is half of its maximum. Turning to ALN (Staphylococcus aureus), the Km in data set [1] was determined as 76 ± 7 µM.
With TLN (Bacillus thermoproteolyticus), the Km in data set [2] was 7 ± 1 µM.
